Experimental data: the DeepSol protein solubility set

Experiment: soluble on expression in E. coli; label from the status in PepcDB or PDB records

Sequence | soluble on expression in E. coli
MGSDKIHHHHHHMSYSEKMLAALSNGQIDTAKKHFAWALRKDDDQTLYSLAEELYGLGFLKQAERTYKKLLAKYPDEDDLRTSLADIAIDEDDTDLALDYLQQVKPDSPAYVQALLVEADLYQTQELFEVSEQKLKEAYQLAPDEPVVEFALAEFYFLIRNYGQATRFYLDLIKQGQLEISKVNLVERLGVAYAESGRFEQAVGYLEQIKPAKLTPDSQFELGFTYLQLNEPQKAVDIFDKLREQDNQYASLYPYLAQAQEQLHQLDKALLTLQEGLAVDQYNEQLYLQTARLALKLDDQELAEKYLREGLSIDPDNLTTVLELSNLLVQRERYQDNIDLLDQYLQSNEFDPQFYWNLAISNDRLDHFQAAKDNYEAAYPFFEHNKDFLKPAIYFFREAGMADSAVAALRNYLTIEPDDGEMVAMLEDYEDQGY | not soluble
MGSDKIHHHHHHMTAQQGVPIKITNKEIAQEFLDKYDTFLFDCDGVLWLGSQALPYTLEILNLLKQLGKQLIFVTNNSTKSRLAYTKKFASFGIDVKEEQIFTSGYASAVYIRDFLKLQPGKDKVWVFGESGIGEELKLMGYESLGGADSRLDTPFDAAKSPFLVNGLDKDVSCVIAGLDTKVNYHRLAVTLQYLQKDSVHFVGTNVDSTFPQKGYTFPGAGSMIESLAFSSNRRPSYCGKPNQNMLNSIISAFNLDRSKCCMVGDRLNTDMKFGVEGGLGGTLLVLSGIETEERALKISHDYPRPKFYIDKLGDIYTLTNNEL | not soluble
MGSDKIHHHHHHMTDIATYNFAYLDEQTKRMIRRAILKGIAIPGYQVPFASREMPMPYGWGTGGVQVTASIIGPDDVLKVIDQGADDTTNAVSIRAFFKKVANVAVTTNTASATIIQTRHRIPEHPLTAGQVLVYQVPIPEPLRFLEPRETETRKMHALEEYGLMHVKLYEDIAKHGRIATTYAYPVKVEGRYVMDPSPTPKFDNPKMHRSPALQLFGAGREKRIYAVPPFTDVVSLDFEDHPFEVQTFDQPCALCAAENVYLDEVILDDHGGHMFVCSDTDHCEKRREEGHRGHLAPETHLGSEKMEPAQ | not soluble
MGSDKIHHHHHHMTDRSSFIDTARQVVLDEARALDALSESLGDGFAEAVELILRTKGRVIVSGIGKSGHIGHKIAATLASTGTPAYFVHPAEASHGDLGMLSGDDVVLAISNSGEAPELANLLAFTRRFAIPLIGLSSKSESSLMQQADVHLLIPALGEACGFGMVPSISTTLTLAMGDALAIALMKYRDFRPENFRVFHPGGKLGARLSRVSDLMHGGEAVPLIAADTPMSEALLEISRKGFGVVGVTDGAGHLAGIVTDGDLRRHMSGLLDKTAAQVMTANPTTIAPDSLAEEAVAIMNARKITSLFVVDPAEPGVARGLLHIHDCLRVGLG | not soluble
MGSDKIHHHHHHMTEGKSMFVGFDYGSANCAIGVMIDDAVSLLPLSTHSDFMPSTLYAMDRELIAEAVYQGLPEHLKAEYSHLRSSQLMRAKLMRHELDLSPNEQAVFVGQAAIDAYLDMPEEGFYVRSPKSFLGANGLRVEQIALFEDIVTLMMQHVKTLADKALNAKSLSSASHAVIGRPVNFQGIGGEDSNQQAETILRLAATRSGFTDVRFLFEPLAAGMDFESNLSDDNTVLVVDVGGGTTDCSVVKMGPSYIKQQDRSPDCFGHSGQRIGGNDLDIALAMTGLMPSFGADTLMINGKPMPRTPFWNAVAVNDISAQRDFVSLPSRKLVEQLIKEAQQPELLVRLQKVQKNQMSYQVVREAEAAKISLSDNDTIQCSLDFIEKGLLVPLTAAQFEQAINDPLAKVEALMKQAMQTATAKAEQQDCDMPTTPDIVYVTGGTARSPAIYNKIASVYPNAKVVVGDHFGSVTAGLTRCAEKCL | not soluble
MGSDKIHHHHHHMTEIATIEKPAQHGATTRLIDIVFPGDTNHHGTLFGGTGLALMDRVAFIAATRFGRTPFVTASCERIDFRQPARIGHIVEFTARPVKAGRRSLTVEVEMVAETIIGRQQHTCTRGIFHMVAIPEGEDAASYVLPELLTEETPDPSDAVTMVEIVFPDQANSAGRMFGGEAIAYMTKAAFVAASRYCGKLVVLASSERIDFARAIEIGEIVEAQAHVERVGRSSMSIQTKLWSENLLTGERHITATGHFTMVAVDKDHRPATIRDPAEAFSLEKGGA | soluble
MGSDKIHHHHHHMTEIQTIRKKVEQQITSLQNETDEIAEFNQAKVLDAFQENKVSDFHFNPSTGYGYDDEGRDTLERVYASVFKTEAALVRPQIISGTHAISTVLFGILRPGDELLYITGEPYDTLEEIVGIRSEGQGSLKDFQIGYDAVPLLPNGEIDYPAVSKKISANTKMIGIQRSRGYADRPSFTIEKIKEMVTFVKNINPNIIVFVDNCYGEFVERIEPTEVGADIIAGSLIKNPGGGLAKTGGYIAGRNTLVDLCGYRLTTPGIGREAGASLYSLLEMYQGFFLAPHVTAQAIKGARFTAAMLAEFGVEADPLWDAKRTDLIQSVSFHSKDKMIAFAQAIQAASPVNAHVLPIGAYMPGYEDDVIMAAGTFIQGASLELTADGPIREPYQLYVQGGLTYEHVKIAVTRAIENSL | not soluble
MGSDKIHHHHHHMTEMNHSVPDDMLMGYASGSLAKAFDLVLATHVSLNDDARARLETFEALGGAILCGMDTVDVDDDSLEQTMAKIRGNAPIERPAPSEGLFPTPLQSMVGGDVDAVRWRSVGGGVKQCVLHSDDGGTVRLLSIAAGRAMPAHSHHGTEMTLVLQGAYRDDDGIFARGDLELADTDTNHQPVAEPGQDCICLVATNAKLKFQGLLPRIAQPFLGI | not soluble
MGSDKIHHHHHHMTEQITPQAFLAGRLLLESEVPSEFLTNKDVITEPSIITENGRYHCRRCCNEHRELFATAPCAWCGNRHCIYCRNCLMLGRVTACRKLVRWKGEPYAFPSHSNVLQWKGTLSHGQRHASLQAVQYWKQKEDHIIWAVCGSGKTEIVFDAVAQSLANGERILLATPRVDVVKELYPRFKQAFPSITITALYGDSPSVFHPAQLVIATTHQTFRFKKAFDFVIVDEVDAFPFSCDQSLQLSVNEARRPLAPILYLSATPSRSLLEQNKRITKVSTRYHGHPLPLPSFVWIGNWRKTVMRRKLPSKLVTWLEKHHRKPVFLFVPSIPVLEQVSAALKQLGYIHDAVHAEDPHRHEKVTRFRDGVTKLLVTTTILERGVTVPRVQVAVLGAEHSVFSEAALVQISGRVGRSHRHPTGDIAFFHYGVSKAMKRCRQQLQQMNREGF | not soluble
MGSDKIHHHHHHMTEQNRDLVLVTGASGFVGSSVARIAQQKGFKVRVLVRATSPRQNVESLDAEIVVGDMRDEASMRNALRGVRYLLHVAADYRLWAPDPSEIERSNLEGTEATMRAALKEGVERIVYTSSVATLKVTSSGQSADETSPLKADQAIGVYKRSKVLAERAVERMIAEDNLPAVIVNPSTPIGPRDVKPTPTGRIIVEAALGKIPAFVDTGLNLVHVDDVAAGHFLALERGKIGERYILGGENLPLQQMLADIAALTGRKAPTLSLPRWPLYPLAMGAEAIAKITKREPFVTVDGLKMSKNKMYFTSAKAERELGYRARPYREGLGDALEWFRQAGYLKA | not soluble
MGSDKIHHHHHHMTEVISTQSVVDLAAIAEKFAFPGTVTNVQAFGSGNINDTFLVTVDSLEAQHFILQRINTLVFRQPELIMQNMRIFSDHVYQRLQYAPPSRRWEVPRILSTKDNHDYCTDTQGNFWRAISFISGSQSFDTMQDLAQAQEIGYALGMFHNLISDLSPEKLADTLVGFHITPLYLRHYEQVLATAKPQPSPELDYCLQFVSDRQSYACILENAKAAGELPLRLMHGDPKINNIMFDTVTHKAVSVIDLDTVKPGLVHYDIGDCLRSGCNHAGEETEHWESVAFDTDLCQGILQGYLSVAKDFLTENDYAYMYDAIRLIAFELGLRFFADYLAGNVYFKIKYPEHNLARALVQFKLTESIESQEIKIRKIIQDIK | not soluble
MGSDKIHHHHHHMTFIDSPLSQTIALAGGDLHVAVARSDLPLGALCGFASRRNPKRPFLFVSKVLGRHLPVRPQVMRMVHRRLAAKLPANLPGPVVAIGMAETAICLGQGVFEAWRGGSGREDGLFIHSTRYRLRQGLLSTFEESHSHATSHLIHQPAAALDRALCAACRTLVLVDDEASTGATFVALVEANRAAMPNLARIVCVTITDWMGAAKRAEITAAMPVPTTFVSLLEGGYTFEARTVTPPAMPNVTGDGAFKDDLIPVNWGRLGLRRPRPLPAAALAIRAKAGERVLVLGTGEFVFPPFQLARRLSAMGADVRVQATTRSPILEGGDIDGVIDFADAYGDGIPNFLYSTRPGDYDRVLVCYETPPSTAQTALIAALGAEPVFFNAIGGPRT | not soluble
